In assay [1] the target is rabbit skeletal-muscle F-actin (rabbit) (UniProt P68135). Put plainly: co-sedimentation; 0.2-3.5 µM tropomyosin with 3 µM F-actin in T buffer (150 mM NaCl, 10 mM Tris-HCl pH 7.5, 2 mM MgCl2), 50 µL, 1 h at room temperature; 670,000 x g, 20 °C, 30 min; SDS-PAGE densitometry; Hill equation fit; apparent Kd.
The target in assay [2] is β-actin filament (cytoskeletal actin, polymerized from G-actin) (UniProt P60709). In words: TIRF microscopy of tropomyosin-decorated single actin filaments; control experiments: the same Tpm isoform labeled with AF488 and with AF568 (0.015 µM of each) mixed with 1 µM G-actin in D buffer, polymerized with 50 mM NaCl for 5-10 min, 10% PEG 300; decorated filaments captured on PLL-PEG/BSA coverslips in microfluidic channels, washed with TIR50 buffer.

In assay [3] the target is α-actin filament (muscle actin, polymerized from G-actin) (UniProt P68135). The description is as above.

Four substances from PMC11506546 can be followed below.

Chain of Tpm1.6 (Tm2), unlabeled recombinant human cytoskeletal tropomyosin (natural protein; modification not given) (chain, as listed by the source): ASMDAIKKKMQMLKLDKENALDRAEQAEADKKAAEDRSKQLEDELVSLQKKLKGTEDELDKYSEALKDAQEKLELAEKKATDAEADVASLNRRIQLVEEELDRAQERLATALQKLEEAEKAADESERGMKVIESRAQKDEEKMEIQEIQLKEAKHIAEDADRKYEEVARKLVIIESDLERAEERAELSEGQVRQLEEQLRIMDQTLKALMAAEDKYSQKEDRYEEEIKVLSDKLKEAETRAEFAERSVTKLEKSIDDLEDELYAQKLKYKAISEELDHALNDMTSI

For the substance “Tpm1.6 (Tm2), unlabeled recombinant human cytoskeletal tropomyosin (natural protein; modification not given)”, the Kd in assay [1] was 440 nM.

As to “Tpm1.1 AF568 (Tpm1.1 labeled at Cys-190 with Alexa Fluor 568 C5 maleimide) (natural protein)”, the Kd in assay [1] came to 240 nM. The ratio of Tpm in Ch1 (red, AF568)/Ch2 (green, AF488) on the filament, median in assay [2] and in assay [3] was 0.9 throughout.

For the substance “Tpm1.1 AF488 (Tpm1.1 labeled at Cys-190 with Alexa Fluor 488 C5 maleimide) (natural protein)”, the Kd in assay [1] stood at 170 nM.

Turning to “Tpm1.1 (αTm), unlabeled recombinant rat skeletal/cardiac muscle tropomyosin (natural protein)”, the Kd in assay [1] worked out at 640 nM.
